Measured values taken from paper PMC9398120 (Molecular Cancer Therapeutics, 2021).

Assays:
recombinant CD73 [1] = target: T1, recombinant CD73 (Homo sapiens, UniProt P21589); assay: AUC
recombinant CD73 [2] = target: T1, recombinant CD73

T1 sequence (P21589 27-549): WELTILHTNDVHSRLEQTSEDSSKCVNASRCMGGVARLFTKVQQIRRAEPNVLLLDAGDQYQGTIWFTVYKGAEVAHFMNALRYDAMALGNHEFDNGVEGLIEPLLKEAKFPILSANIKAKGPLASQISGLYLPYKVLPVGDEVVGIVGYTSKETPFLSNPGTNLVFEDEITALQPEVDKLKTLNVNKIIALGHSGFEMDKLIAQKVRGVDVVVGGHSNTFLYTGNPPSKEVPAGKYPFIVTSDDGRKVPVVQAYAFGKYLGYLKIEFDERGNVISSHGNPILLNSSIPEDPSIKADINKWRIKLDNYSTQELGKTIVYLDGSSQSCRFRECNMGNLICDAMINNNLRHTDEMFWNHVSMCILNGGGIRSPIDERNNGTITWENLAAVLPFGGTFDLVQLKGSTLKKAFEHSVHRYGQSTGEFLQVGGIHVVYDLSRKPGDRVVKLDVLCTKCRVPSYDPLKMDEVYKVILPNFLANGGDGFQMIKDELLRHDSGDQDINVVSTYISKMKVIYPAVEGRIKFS

B1: mAb19 (antibody, V domains shown)
VH: QVQLVQSGAEVKKPGDSVKVSCKASGYTFTTYWMHWVRQAPGQGLEWMGAIYPGLSDTTYNQKFKGKVTMTRDTSTSTVYMKLSSLRSEDTAVYYCARLLDYAMDYWGQGTLVTVSS
VL: DIQMTQSPSSLSASVGDRVTITCRASQDIRSYLNWHQQKPGKAPKLLIWYTSRLHSGVPSRFSGSGSGTDYTLTISSLQPEDFATYFCQQGETLPWTFGQGTKLEIK
stoichiometry N (recombinant CD73 [1]): 1 mAb19 per CD73 (printed as 2:2)
Kd (recombinant CD73 [2]): 74 pM
